{"source": "patent US20210380703A1", "binders": {"B1": {"name": "374_H07 (antibody, V domains shown)", "VH": "EVQLLESGGGLVQPGGSLRLSCAASGFTFDSYGMNWVRQAPGKGLEWVANINYNGGYTGYADSVKGRFTISRDNSKNTLYLQMNSLRAEDTAVYYCARSANWHDTALDYWGQGTLVTVSS", "VL": "DIQMTQSPSSLSASVGDRVTITCRASQSILTYLNWYQQKPGKAPKLLIYAATSRASGVPSRFSGSGSGTDFTLTISSLQPEDFATYYCQQSYETPLTFGGGTKVEIK"}, "B2": {"name": "375_D05 (antibody, V domains shown)", "VH": "B1 VH with D30S, G33S, N50S, G55S, G59S, A106H", "VL": "B1 VL with L30V, T31S, R54L, A55H, E93D"}, "B3": {"name": "376_A04 (antibody, V domains shown)", "VH": "B1 VH with G33S, A49S, G59S", "VL": "B1 VL with L30V, L47V, E93D, T94S"}, "B4": {"name": "373_E03 (antibody, V domains shown)", "VH": "B1 VH with A49S, N101T", "VL": "B1 VL with T31S, L33V, L47V, E93D, T94L"}, "B5": {"name": "375_E01 (antibody, V domains shown)", "VH": "B1 VH with D30S, G33S, A49S, N50G, G55S, T58K, G59S", "VL": "B1 VL with L47V, Y92D, E93D, T94S"}, "B6": {"name": "375_D04 (antibody, V domains shown)", "VH": "B1 VH with S31D, Y32S, G33S, N35H, A49S, R98K", "VL": "B1 VL with T31S, L33V, L47V, T94L"}, "B7": {"name": "367_C03 (antibody, V domains shown)", "VH": "B1 VH with D30S, G33S, N101T", "VL": "B1 VL with T31S, L33V, L47V, A51T, T94N"}, "B8": {"name": "376_A12 (antibody, V domains shown)", "VH": "B1 VH with D30S, G33S, G55S, T58K", "VL": "B1 VL with T31S, L33V, L47V, E93D"}, "B9": {"name": "376_C01 (antibody, V domains shown)", "VH": "B1 VH with G33S, N50G, G59S", "VL": "B1 VL with R54L, E93D, T94N"}, "B10": {"name": "376_B04 (antibody, V domains shown)", "VH": "B1 VH with N35H, N50S", "VL": "B1 VL with L30V, T31S, L33V, L47V, E93D"}, "B11": {"name": "375_A05 (antibody, V domains shown)", "VH": "B1 VH with D30S, T58K", "VL": "B1 VL with T31S, E93D, T94L"}, "B12": {"name": "376_H09 (antibody, V domains shown)", "VH": "B1 VH with D30S, S31D, G33S", "VL": "B1 VL with L30I, L47V, A50Y, A51V, T52S, S53N, R54L, A55P, E93D, T94S"}, "B13": {"name": "376_B07 (antibody, V domains shown)", "VH": "B1 VH with G33S, A49S, N50G, G55S, G59S, N101T", "VL": "B1 VL with T31S, L47V, A50Y, A51V, T52S, S53N, E93D, T94N"}, "B14": {"name": "374_C08 (antibody, V domains shown)", "VH": "B1 VH with A49S, N50G, G55S, T58K, G59S, N101T", "VL": "B1 VL with T31S, L33V, A51V, E93D, T94S"}, "B15": {"name": "367_H07 (antibody, V domains shown)", "VH": "B1 VH with D30S, G33S, N101T", "VL": "B1 VL with T31S, L33V, L47V, A51T, T94N"}, "B16": {"name": "374_H09 (antibody, V domains shown)", "VH": "B1 VH with D30S, G33S, G55S, T58K, G59S", "VL": "B1 VL with T31S, L47V, A51V, R54L, E93D, T94L"}, "B17": {"name": "365_F07 (antibody, V domains shown)", "VH": "B1 VH with D30S, G33S, A49S, T58K, G59S, N101T", "VL": "B1 VL with T31S, L33V, L47V, E93D, T94L"}, "B18": {"name": "376_H10 (antibody, V domains shown)", "VH": "B1 VH with G33S, A49S, N50G, G55S, T58K, G59S", "VL": "B1 VL with L47V, A55H, E93D, T94S"}, "B19": {"name": "376_C06 (antibody, V domains shown)", "VH": "B1 VH with D30S, N50G, G59S, N101T", "VL": "B1 VL with T31S, L47V, E93D, T94S"}, "B20": {"name": "375_D07 (antibody, V domains shown)", "VH": "B1 VH with D30S, G55S", "VL": "B1 VL with L30I, E93D"}, "B21": {"name": "376_C12 (antibody, V domains shown)", "VH": "B1 VH with D30S, G33S, N50G", "VL": "B1 VL with L33V, E93D, T94S"}, "B22": {"name": "375_H12 (antibody, V domains shown)", "VH": "B1 VH with D30S, N50G, T58K", "VL": "B1 VL with A50Y, A51V, S53N, A55Q, E93S, T94I"}, "B23": {"name": "369_C10 (antibody, V domains shown)", "VH": "B1 VH with D30S, G33S, G59S, N101T", "VL": "B1 VL with L30V, R54L, A55H, Y92D, E93S, T94L"}, "B24": {"name": "376_D11 (antibody, V domains shown)", "VH": "B1 VH with D30S", "VL": "B1 VL with T31S, L47V, E93N, T94N"}, "B25": {"name": "370_G12 (antibody, V domains shown)", "VH": "B1 VH with D30S, G33S, N50G, T58K, N101T", "VL": "B1 VL with L30I, R54L, Y92D, T94S"}, "B26": {"name": "368_D10 (antibody, V domains shown)", "VH": "B1 VH with N50G, G55S, G59S, N101T", "VL": "B1 VL with T31S, L47V, E93D, T94S"}, "B27": {"name": "376_C02 (antibody, V domains shown)", "VH": "B1 VH with A49S, N50G, G55S, G59S", "VL": "B1 VL with L30V, T31S, L47V, A51V, E93D, T94S"}, "B28": {"name": "376_B09 (antibody, V domains shown)", "VH": "B1 VH with G33S, G55S, T58K", "VL": "B1 VL with L33V, L47V, E93D, T94L"}, "B29": {"name": "376_A06 (antibody, V domains shown)", "VH": "B1 VH with G33S, A49S, N50G, G55S, G59S, N101T", "VL": "B1 VL with T31S, L47V, A50Y, A51V, T52S, S53N, E93D, T94N"}, "B30": {"name": "366_B04 (antibody, V domains shown)", "VH": "B1 VH with G33S, N50G, T58K, N101T, A106H", "VL": "B1 VL with L33V, L47V, A55H, E93D"}, "B31": {"name": "376_E03 (antibody, V domains shown)", "VH": "B1 VH with D30S", "VL": "B1 VL with T31S, L33V, L47V, R54L, E93D, T94L"}, "B32": {"name": "365_E02 (antibody, V domains shown)", "VH": "B1 VH with D30S, G33S, G59S, R98K, N101T, A106H", "VL": "B1 VL with L30I, T31S, T94N"}, "B33": {"name": "376_B11 (antibody, V domains shown)", "VH": "B1 VH with D30S, G33S, A49S, N50G, G59S", "VL": "B1 VL with T31S, L33V, L47V, E93D, T94L"}, "B34": {"name": "376_E08 (antibody, V domains shown)", "VH": "B1 VH with D30S, S31D, N50G, G59S", "VL": "B1 VL with L30V, T31S, L33V, L47V, E93D, T94S"}, "B35": {"name": "376_G08 (antibody, V domains shown)", "VH": "B1 VH with G59S", "VL": "B1 VL with T31S, L33V, L47V, E93D"}, "B36": {"name": "375_E07 (antibody, V domains shown)", "VH": "B1 VH with D30S, S31D, G33S, N50G, G55S, T58K", "VL": "B1 VL with L30V, A50V, A51V, S53N, A55E"}, "B37": {"name": "365_B03 (antibody, V domains shown)", "VH": "B1 VH with D30S, G33S, N50G, N101T, A106H", "VL": "B1 VL with L30V, T31S, T94N"}, "B38": {"name": "376_D05 (antibody, V domains shown)", "VH": "B1 VH with D30S, G33S, A49S, T58K", "VL": "B1 VL with L30V, T31S, L33V, R54L, E93D"}, "B39": {"name": "376_G09 (antibody, V domains shown)", "VH": "B1 VH with G33S, A49S, N50G, G55S, T58K", "VL": "B1 VL with L30S, T31Y, A51V, E93D, T94N"}, "B40": {"name": "375_C06 (antibody, V domains shown)", "VH": "B1 VH with S31D, N35H, N50S, G55S, G59S", "VL": "B1 VL with L33V, L47V, A51T, E93D, T94S"}, "B41": {"name": "376_B05 (antibody, V domains shown)", "VH": "B1 VH with D30S, G33S", "VL": "B1 VL with L30I, T31S, L33V, T94L"}, "B42": {"name": "369_E10 (antibody, V domains shown)", "VH": "B1 VH with D30S, G33S, A49S, T58K, G59S, N101T", "VL": "B1 VL with T31S, L33V, L47V, E93D, T94L"}, "B43": {"name": "375_D12 (antibody, V domains shown)", "VH": "B1 VH with A49S, N50S, G55S, G59S", "VL": "B1 VL with L33V, L47V"}, "B44": {"name": "369_F07 (antibody, V domains shown)", "VH": "B1 VH with G33S, N50G, T58K, G59S, N101T, A106H", "VL": "B1 VL with T31S, L33V, L47V, T94S"}, "B45": {"name": "376_A10 (antibody, V domains shown)", "VH": "B1 VH with D30S, S31D, A49S, G55S, T58K", "VL": "B1 VL with T31S, T94S"}, "B46": {"name": "370_A09 (antibody, V domains shown)", "VH": "B1 VH with D30S, G33S, N50G, N101T, A106H", "VL": "B1 VL with L47V, E93D"}, "B47": {"name": "365_G12 (antibody, V domains shown)", "VH": "B1 VH with D30S, N50G, G55S, G59S, N101T", "VL": "B1 VL with T31S, L33V, L47V, E93S, T94N"}, "B48": {"name": "368_C01 (antibody, V domains shown)", "VH": "B1 VH with N50G, N101T", "VL": "B1 VL with L30I, E93D, T94S"}}, "note": "Changes are numbered by the printed parent chain.", "data": [{"target": "human Fc (human)", "assay": "ELISA; negative control", "units": {"optical density": "OD"}, "values": [{"binder": "B1", "optical density": 0.163}, {"binder": "B2", "optical density": 0.202}, {"binder": "B3", "optical density": 0.245}, {"binder": "B4", "optical density": 0.194}, {"binder": "B5", "optical density": 0.164}, {"binder": "B6", "optical density": 0.182}, {"binder": "B7", "optical density": 0.275}, {"binder": "B8", "optical density": 0.22}, {"binder": "B9", "optical density": 0.324}, {"binder": "B10", "optical density": 0.293}, {"binder": "B11", "optical density": 0.202}, {"binder": "B12", "optical density": 0.281}, {"binder": "B13", "optical density": 0.234}, {"binder": "B14", "optical density": 0.178}, {"binder": "B15", "optical density": 0.297}, {"binder": "B16", "optical density": 0.158}, {"binder": "B17", "optical density": 0.331}, {"binder": "B18", "optical density": 0.318}, {"binder": "B19", "optical density": 0.29}, {"binder": "B20", "optical density": 0.176}, {"binder": "B21", "optical density": 0.438}, {"binder": "B22", "optical density": 0.188}, {"binder": "B23", "optical density": 0.32}, {"binder": "B24", "optical density": 0.267}, {"binder": "B25", "optical density": 0.418}, {"binder": "B26", "optical density": 0.245}, {"binder": "B27", "optical density": 0.222}, {"binder": "B28", "optical density": 0.227}, {"binder": "B29", "optical density": 0.262}, {"binder": "B30", "optical density": 0.331}, {"binder": "B31", "optical density": 0.234}, {"binder": "B32", "optical density": 0.357}, {"binder": "B33", "optical density": 0.261}, {"binder": "B34", "optical density": 0.332}, {"binder": "B35", "optical density": 0.22}, {"binder": "B36", "optical density": 0.158}, {"binder": "B37", "optical density": 0.444}, {"binder": "B38", "optical density": 0.215}, {"binder": "B39", "optical density": 0.23}, {"binder": "B40", "optical density": 0.2}, {"binder": "B41", "optical density": 0.242}, {"binder": "B42", "optical density": 0.412}, {"binder": "B43", "optical density": 0.193}, {"binder": "B44", "optical density": 0.335}, {"binder": "B45", "optical density": 0.279}, {"binder": "B46", "optical density": 0.361}, {"binder": "B47", "optical density": 0.556}, {"binder": "B48", "optical density": 0.41}]}]}
